Test results taken from publication PMC5695104.

Biological target: recombinant H03-IPSE (Schistosoma haematobium)
Test: SDS-PAGE under non-reducing and reducing conditions; 4-20% gradient gel, Coomassie stain and anti-His Western blot; protein purified by IMAC from serum-free culture supernatant; run non-reduced (NR) or reduced (R)

recombinant H03-IPSE (natural protein)
stoichiometry N: 2
